Positions count from the first letter of the chain named. Where no end group is shown, it is not given here. [ ]: non-standard residue; d: D form. The star is where a group is joined. MTSL = spin label, CC1(C)C=C(CS*)C(C)(C)N1[O]; Lys(Me3) = C[N+](C)(C)CCCC[C@H](N)C(=O)O
T1: Eaf3 chromodomain (Eaf3 CD, residues 1-120), wild type (S. cerevisiae, UniProt Q12432 1-120)
T1 construct: Eaf3 chromodomain (CD), budding yeast (S. cerevisiae), residues 1-120; 15N-labelled for the NMR experiments; expressed from pET15b; also called WT Eaf3 CD; source: E. coli BL21(DE3)pLysS, purified (Ni-NTA, thrombin, Ni-NTA flow-through, Superdex75)
T1 sequence (looked up): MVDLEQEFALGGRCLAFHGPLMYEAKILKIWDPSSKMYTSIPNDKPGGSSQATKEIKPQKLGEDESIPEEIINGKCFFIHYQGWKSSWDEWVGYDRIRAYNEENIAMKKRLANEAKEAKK

T2: Eaf3 CD (residues 1-120) W84Y (S. cerevisiae, UniProt Q12432 1-120, W84Y)
T2 construct: Eaf3 chromodomain (CD), budding yeast (S. cerevisiae), residues 1-120, W84Y; 15N-labelled for the NMR experiments; source: E. coli BL21(DE3)pLysS, purified (Ni-NTA, thrombin, Ni-NTA flow-through, Superdex75)
T2 sequence (looked up): T1 sequence (looked up) with W84Y

T3: Eaf3 CD (residues 1-120) Q82A (S. cerevisiae, UniProt Q12432 1-120, Q82A)
T3 construct: Eaf3 chromodomain (CD), budding yeast (S. cerevisiae), residues 1-120, Q82A; 15N-labelled for the NMR experiments; source: E. coli BL21(DE3)pLysS, purified (Ni-NTA, thrombin, Ni-NTA flow-through, Superdex75)
T3 sequence (looked up): T1 sequence (looked up) with Q82A

T4: Eaf3 CD (residues 1-120) G19A (S. cerevisiae, UniProt Q12432 1-120, G19A)
T4 construct: Eaf3 chromodomain (CD), budding yeast (S. cerevisiae), residues 1-120, G19A; 15N-labelled for the NMR experiments; source: E. coli BL21(DE3)pLysS, purified (Ni-NTA, thrombin, Ni-NTA flow-through, Superdex75)
T4 sequence (looked up): T1 sequence (looked up) with G19A

T5: Eaf3 CD (residues 1-120) H18D (S. cerevisiae, UniProt Q12432 1-120, H18D)
T5 construct: Eaf3 chromodomain (CD), budding yeast (S. cerevisiae), residues 1-120, H18D; 15N-labelled for the NMR experiments; also called H18D Eaf3 CD; source: E. coli BL21(DE3)pLysS, purified (Ni-NTA, thrombin, Ni-NTA flow-through, Superdex75)
T5 sequence (looked up): T1 sequence (looked up) with H18D

B1: histone H3 peptide H3K4me3, titration peptide (peptide)
chain: ART[Lys(Me3)]QTARKSTGGKAPRY
B2: MTSL spin-labelled H3K36me3 peptide (residues 32-41) with a Gly33Cys substitution (peptide, UniProt P61830 33-42, looked up)
peptide: TC(MTSL)GVK(me3)KPHRY
notes: histone H3 residues 32-41 with Gly33Cys; also called MTSL-H3K36me3 peptide; paramagnetically labeled H3K36me3 peptide; source: synthetic peptide (SIGMA Genosys), labelled with MTSL

How the values were obtained:
Conditions in all cases: both partners purified
[1] = target: T1, Eaf3 chromodomain (Eaf3 CD, residues …); test: NMR titration; 0.1 mM 15N-labelled WT or mutant Eaf3 CD titrated with unlabelled histone H3 peptide up to 1:88; 10 mM potassium phosphate pH 6.8, 20 mM NaCl, 5 mM DTT, 25°C; Kd by nonlinear fit of chemical shift change
[2] = target: T2, Eaf3 CD (residues 1-120) W84Y; test: as above
[3] = target: T3, Eaf3 CD (residues 1-120) Q82A; test: as above
[4] = target: T4, Eaf3 CD (residues 1-120) G19A; test: as above
[5] = target: T1, Eaf3 chromodomain (Eaf3 CD, residues …); test: paramagnetic relaxation enhancement (NMR); MTSL-H3K36me3 peptide added to 0.3 mM 15N-labelled Eaf3 CD at 1:1; 10 mM potassium phosphate pH 6.8, 20 mM NaCl; paramagnetic against ascorbate-reduced sample
[6] = target: T5, Eaf3 CD (residues 1-120) H18D; test: as above

| Binder | Kd [1] | Kd [2] | Kd [3] | Kd [4] | binding result [5] | binding result [6] |
| --- | --- | --- | --- | --- | --- | --- |
| B1 | 2900 ± 10 µM | 1590 ± 280 µM | 2240 ± 280 µM | 800 ± 70 µM | – | – |
| B2 | – | – | – | – | binds | binds |

Source: PMC7033311, “The Eaf3 chromodomain acts as a pH sensor for gene expression by altering its binding affinity for histone methylated-lysine residues” (Bioscience Reports, 2020)
